# Where a SMILES comes first, the peptide text is derived from it. Bridges are numbered along the chain shown (N, C = ends). Where no end group is shown, it is not given here. [ ]: non-standard residue; d: D form.
# Experiments:
# [1] = Stability in simulated intestinal fluid (SIF), biological activity by cGMP synthesis in T84 cells; format: in vitro ADME
# Description: FIG. 2A: Biological activity of SP-304 incubated for varying lengths of time in simulated intestinal fluid (SIF). SP-304 samples were incubated for 0, 30, 60, 90, 150, and 300 min, respectively, and then tested for their ability to stimulate cGMP synthesis in T84 cells. The cGMP stimulation activity in the sample at 0 min of incubation time in SIF was taken as 100% biological activity. The activities of the other SP-304 incubation samples were calculated as the percentage of activity relative to that of the 0 min sample. Data points shown are the average of triplicate measurements±SD.
# (§1) FIG. 7A: Biological activity of SP-333 incubated for varying lengths of time in simulated intestinal fluid (SIF). SP-333 samples incubated for 0, 5, 10, 30, 60, and 120 min, respectively, were tested for their ability to stimulate cGMP synthesis in T84 cells. The control sample marked as C120 was produced by incubating SP-333 with heat inactivated SIF for 120 min. Samples from the incubations were removed and heated at 95° C. for 5 min to inactivate digestive enzymes and then used to stimulate cyclic GMP synthesis in T84 cells. The cGMP stimulation activity in the sample at 0 min of incubation time in SIF was taken as 100% biological activity. The activities of the other SP-304 incubation samples were calculated as the percentage of activity relative to that of the 0 min sample. Data points shown are the average of triplicate measurements±SD.
# as §1, with “FIG. 7B:” for “FIG. 7A:”, “of SP-332” for “of SP-333”, “incubating SP-332” for “incubating SP-333”
# FIG. 7C: Biological activity of SP-304 incubated for varying lengths of time in simulated intestinal fluid (SIF). SP-304 samples incubated for 0, 10, and 60 min, respectively, were tested for their ability to stimulate cGMP synthesis in T84 cells. The control samples marked as C0 and C60 were produced by incubating SP-304 with heat inactivated SIF for 0 and 60 min, respectively. Samples from the incubations were removed and heated at 95° C. for 5 min to inactivate digestive enzymes and then used to stimulate cyclic GMP synthesis in T84 cells. The cGMP stimulation activity in the sample at 0 min of incubation time in SIF was taken as 100% biological activity. The activities of the other SP-304 incubation samples were calculated as the percentage of activity relative to that of the 0 min sample. […]
# FIGS. 7G-1-7G-5: Incubation of SP-333 with SIF for 2, 6, 12 and 24 hrs. Effect of SIF digestion on the activity of SP-333 in T84 stimulation assay was determined (FIG. 7G-1) and samples were also analyzed by HPLC (FIGS. 7G2-5). […]
# The stability of SP-304 was also evaluated after incubation with simulated intestinal fluid (SIF) by measuring its biological activity and by HPLC analyses (FIGS. 2A & 2B). […]
# intestinal GC-C receptor = biological target: T1, intestinal GC-C receptor (Homo sapiens, UniProt P25092); experiment: Cyclic GMP stimulation assay in T84 cells; format: cell-based; conditions: 30 min exposure (FIG. 5)
# T1 construct: confluent monolayers of T-84 cells in 24-well plates; host or cells: T84 human colon carcinoma cells
# Text: FIG. 4: Biological activity of truncated peptides of 16-mer SP-304, as measured by stimulation of cGMP synthesis in T84 cells. SP-338 15-mer peptide is indentical to SP-304 except that it lacks Leu at the C-terminus. SP-327, SP-329 and SP-331 lack Leu at their C-termini relative to their corresponding parents, SP-326, SP-328 and SP-330, respectively. Data points shown are the average of duplicate measurements.
# FIG. 5: Stimulation of cGMP synthesis in T84 cells by SP-304 and similar analogs. T84 cells were exposed to test peptides for 30 min and cell lysates were then used to determine intracellular cGMP levels. Data points shown are the average of triplicate measurements±SD.
# FIG. 6: Stimulation of cGMP synthesis in T84 cells by SP-339 (linaclotide) and other linaclotide analogs. T84 cells were exposed to test peptides for 30 min and cell lysates were then used to determine intracellular cGMP levels. Data points shown are the average of triplicate measurements±SD.
# FIG. 8: Stimulation of cGMP synthesis in T84 cells by the peggylated analogs of SP-333. T84 cells were exposed to the indicated peptides for 30 min and cell lysates were used to determine intracellular cGMP levels. Data points shown are the average of triplicate measurements±SD.
# After the 30 min incubation, the medium was aspirated and the reaction was terminated by the addition of 3% perchloric acid. Following centrifugation and the addition of NaOH (0.1 N) to neutralize the pH, intracellular cGMP levels were determined in lysates using a cGMP ELISA kit (Cat. No. 581021; Cayman Chemical, Ann Arbor, Mich.). Peptide incubations were run in duplicate, and samples taken from each incubation were run as duplicates in the ELISA test.
# The ability of the GCC agonist peptide to bind to and activate the intestinal GC-C receptor was tested using T84 human colon carcinoma cell line. Human T84 colon carcinoma cells were obtained from the American Type Culture Collection. Cells were grown in a 1:1 mixture of Ham's F-12 medium and Dulbecco's modified Eagle's medium (DMEM) supplemented with 10% fetal bovine serum, 100 U penicillin/ml, and 100 μg/ml streptomycin. The cells were fed fresh medium every third day and split at a confluence of approximately 80%.
# Biological activity of the GCC agonist peptides was assayed as previously reported (Shailubhai, et al., Cancer Research 60, 5151-5157 (2000)). Briefly, the confluent monolayers of T-84 cells in 24-well plates were washed twice with 250 μl of DMEM containing 50 mM HEPES (pH 7.4), pre-incubated at 37° C. for 10 min with 250 μl of DMEM containing 50 mM HEPES (pH 7.4) and 1 mM isobutylmethylxanthine (IBMX), followed by incubation with GCC agonist peptides (0.1 nM to 10 µM) for 30 min. The medium was aspirated, and the reaction was terminated by the addition of 3% perchloric acid. Following centrifugation, and neutralization with 0.1 N NaOH, the supernatant was used directly for measurements of cGMP using an ELISA kit (Caymen Chemical, Ann Arbor, Mich.).
# An additional strategy to render peptides more resistant towards digestion by digestive proteases is to peggylate them at the N- and C-terminus. The peptide SP-333 was peggylated with the aminoethyloxy-ethyloxy-acetic acid (Aeea) group at the C-terminus (SP-347) or at the N-terminus (SP-350) or at both termini (SP-343). Cyclic GMP synthesis in T84 cells was measured by the method as described above.
# [2] = Stability in simulated intestinal fluid (SIF), HPLC analysis; format: in vitro ADME; conditions: SIF
# Description: FIG. 2B: HPLC chromatographic spectra of SP-304 samples after incubation with: (A) heat-inactivated SIF for 300 minutes, or (B) SIF for 120 minutes. The arrows show the elution position of SP-304.
# FIGS. 7D-1-7D-2: HPLC chromatograms of SP-304 incubated for 0 min in SIF (FIG. 7D-1) and 60 min in SIF (FIG. 7D-2), respectively. The arrows indicate the elution positions of the parent SP-304 peptides. […] These new peptide peaks represent degradation products of SP-304.
# FIGS. 7E-1-7-E2: HPLC chromatograms of SP-332 incubated for 0 min in SIF (FIG. 7E-1) and 120 min in SIF (FIG. 7E-2), respectively. The arrows indicate the elution positions of the parent SP-332 peptides.
# FIGS. 7F-1-7F-2: HPLC chromatograms of SP-333 incubated for 0 min in SIF (FIG. 7F-1) and 120 min in SIF (FIG. 7F-2), respectively. The arrows indicate the elution positions of the parent SP-333 peptides.
# FIGS. 7G-1-7G-5: Incubation of SP-333 with SIF for 2, 6, 12 and 24 hrs. Effect of SIF digestion on the activity of SP-333 in T84 stimulation assay was determined (FIG. 7G-1) and samples were also analyzed by HPLC (FIGS. 7G2-5). The elution positions of the parent peptide and its metabolites are indicated by arrows.
# The physical stability of SP-304 peptide exposed to SIF was evaluated by HPLC using the method described for SGF digestion. […]
# T1 sequence (P25092 24-1073): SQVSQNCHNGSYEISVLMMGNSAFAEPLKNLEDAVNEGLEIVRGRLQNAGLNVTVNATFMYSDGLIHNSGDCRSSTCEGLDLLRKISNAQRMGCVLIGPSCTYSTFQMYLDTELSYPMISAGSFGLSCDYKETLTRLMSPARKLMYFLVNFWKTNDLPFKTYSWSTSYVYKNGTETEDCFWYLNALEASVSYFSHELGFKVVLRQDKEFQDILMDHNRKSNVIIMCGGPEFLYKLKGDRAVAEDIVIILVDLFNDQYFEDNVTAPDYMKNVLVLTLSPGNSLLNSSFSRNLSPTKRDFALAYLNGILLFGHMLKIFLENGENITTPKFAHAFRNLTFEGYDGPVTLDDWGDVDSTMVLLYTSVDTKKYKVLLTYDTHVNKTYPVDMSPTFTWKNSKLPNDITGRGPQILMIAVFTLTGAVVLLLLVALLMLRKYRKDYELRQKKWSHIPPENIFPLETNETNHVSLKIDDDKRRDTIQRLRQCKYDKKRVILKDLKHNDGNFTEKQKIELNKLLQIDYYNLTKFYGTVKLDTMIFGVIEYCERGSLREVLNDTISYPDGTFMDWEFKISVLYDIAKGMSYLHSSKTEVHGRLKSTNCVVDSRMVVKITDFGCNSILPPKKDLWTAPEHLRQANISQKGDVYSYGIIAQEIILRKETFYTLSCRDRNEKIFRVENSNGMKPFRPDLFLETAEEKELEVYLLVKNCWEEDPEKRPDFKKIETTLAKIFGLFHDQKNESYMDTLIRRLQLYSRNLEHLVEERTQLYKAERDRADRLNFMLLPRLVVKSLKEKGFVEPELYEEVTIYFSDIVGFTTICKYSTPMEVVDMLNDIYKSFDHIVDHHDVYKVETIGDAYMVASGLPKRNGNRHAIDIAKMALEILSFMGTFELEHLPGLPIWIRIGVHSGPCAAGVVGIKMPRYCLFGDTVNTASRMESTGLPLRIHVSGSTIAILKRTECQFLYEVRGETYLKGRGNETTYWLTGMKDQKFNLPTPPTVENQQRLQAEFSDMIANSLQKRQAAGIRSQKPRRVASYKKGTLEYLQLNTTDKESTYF
molecule,measurement,setting,value
"CC(C)C[C@@H]1NC(=O)[C@H](CCC(=O)O)NC(=O)[C@@H](NC(=O)[C@H](CCC(=O)O)NC(=O)[C@H](CC(=O)O)NC(=O)[C@@H](N)CC(N)=O)CSSC[C@@H]2NC(=O)[C@H](C)NC(=O)[C@H](C(C)C)NC(=O)[C@H](CC(N)=O)NC(=O)[C@H](C(C)C)NC(=O)[C@H](CSSC[C@@H](C(=O)N[C@H](CC(C)C)C(=O)O)NC(=O)CNC(=O)[C@H]([C@@H](C)O)NC2=O)NC1=O [SP-332, Asn^1-Asp^2-Glu^3-Cys^4-Glu^5-Leu^6-Cys^7-Val^8-Asn^9-Val^10-Ala^11-Cys^12-Thr^13-Gly^14-Cys^15-dLeu^16] (H-NDECELCVNVACTGC[dL]-OH; disulfide 4-12, 7-15)",potency following incubation with SIF,[1],minor reduction in potency
"dAsn^1-Asp^2-Glu^3-Cys^4-Glu^5-Leu^6-Cys^7-Val^8-Asn^9-Val^10-Ala^11-Cys^12-Thr^13-Gly^14-Cys^15-dLeu^16 ([dN]DECELCVNVACTGC[dL]; disulfide (positions not given here); also: two disulfides, pairing not given here) [SP-333]",ability to stimulate cGMP synthesis in T84 cells relative to SP-304,intestinal GC-C receptor,comparable ability
same,HPLC analysis of parent peptide after incubation with SIF,[2]; 120 min,remained virtually intact
same,degradation in SIF,[2]; up to 24 hours (FIG. 7G),very little degradation
same,biological activity remaining after incubation in SIF,"[1]; SIF, two hour incubation (FIG. 7A)",~100%

# From patent US10034836B2, “Formulations of guanylate cyclase C agonists and methods of use” (SYNERGY PHARMACEUTICALS, INC., priority 2008, dated 2018)
